Data published in patent US20250011410A1 (INVETX, published 2025).
Positions count from the first letter of the chain named. Names may count otherwise. “And” between values parts separate entries of the source, which are not always exact repeats. Identical values can stand only once.

B1: canine NGF tagged at the C-terminus with the Flag tag (ligand)
chain: SSSHPVFHRGEFSVCDSVSVWVGDKTTATDIKGKEVMVLGEVNINNSVFKQYFFETKCRDPTPVDSGCRGIDSKHWNSYCTTTHTFVKALTMDGKQAAWRFIRIDTACVCVLSRKAGRRADYKDDDDK
notes: Baculovirus expression; also called feline NGF (processed form identical)
B2: felinized clone 101 (antibody, V domains shown)
VH: DVQLVESGGDLVKPGGSLRLTCVASGLSLTSSSMSWVRQAPGKGLQWVSTIYSNGGTYYTDSVKGRFTISKDNAENTLYLQMNNLKTEDTATYYCASIYYYDADYLHWYFDFWGQGALVTVSS
VL: EIQMTQSPTSLSASVGDRVTITCRASEGISNNLSWYQQTPGKAPKLLIYATSNLHSGVPSRFSGSGSGTDFTLTISSLQPEDFATYYCQQGYKWPLTFGGGTKLEIT
B3: felinized clone 101 (IgG) (antibody, V domains shown)
VH: B2 VH
VL: B2 VL
B4: SC-184_76-Arg (antibody, V domains shown)
VH: B2 VH with S32D, I51L, Y52W, G55R, D102E
VL: B2 VL with S30A, Y92F
notes: SC-184_76 containing the G55R mutation in VH; feline antibody captured on an anti-feline chip
B5: SC-184_110-Arg (antibody, V domains shown)
VH: B2 VH with S32A, G55R, D102E, D104E
VL: B2 VL with N31K, S52D, Y92W
notes: SC-184_110 containing the G55R mutation in VH; feline antibody captured on an anti-feline chip
B6: SC-184_102-Arg (antibody, V domains shown)
VH: B2 VH with S32N, Y52W, G55R, D102E, D104E
VL: B2 VL with E27K, T51Q
notes: SC-184_102 containing the G55R mutation in VH; feline antibody captured on an anti-feline chip
B7: SC-184_76 (antibody, IgG1a, V domains shown)
VH: B2 VH with S32D, I51L, Y52W, D102E
VL: B2 VL with S30A, Y92F
B8: SC-184_110 (antibody, IgG1a, V domains shown)
VH: B2 VH with S32A, D102E, D104E
VL: B2 VL with N31K, S52D, Y92W
B9: SC-184_110 (antibody, IgG1a, V domains shown)
VH: B2 VH with S32A, D102E, D104E
VL: B2 VL with N31K, S52D, Y92W
notes: also called SC-110
B10: SC-184_102 (antibody, IgG1a, V domains shown)
VH: B2 VH with S32N, Y52W, D102E, D104E
VL: B2 VL with E27K, T51Q
notes: also called SC-102
B11: SC-184_102 (antibody, IgG1a, V domains shown)
VH: B2 VH with S32N, Y52W, D102E, D104E
VL: B2 VL with E27K, T51Q

Tests used:
canine TrkA-Fc = biological target: T1, canine TrkA-Fc (canine; human, UniProt A0A8I3P078 33-423); test: SPR, TrkA-Fc captured on anti-human Fc chip, NGF analyte
T1 construct: extracellular domain; also called Trk-Fc; canine TrkA in a dimer format; not shown: human IgG1 Fc, UniProtKB P01857

canine p75-Fc = biological target: T2, canine p75-Fc (canine; human); test: SPR, p75-Fc captured on anti-human Fc chip, NGF analyte
T2 construct: extracellular domain; also called canine p75 in a dimer format; not shown: human IgG1 Fc, UniProtKB P01857

[1] = biological target: B1; test: SPR, antibody captured on goat anti-cat IgG, single cycle kinetics, NGF analyte
[2] = biological target: T3, canine NGF tagged at the C-terminus with the Flag tag (canine, UniProt A0A8I3PYI3 122-241); test: SPR, IgG amine-coupled to HC30M chip, NGF analyte
T3 construct: mature; Expressed with baculovirus technology; also called feline NGF (processed form identical)

[3] = biological target: T4, canine NGF tagged at the C-terminus with the Flag tag (canine, UniProt A0A8I3PYI3 122-241); test: SPR, Biacore T200; antibody captured on anti-feline CM5 chip, NGF as analyte; 1:1 model
T4 construct: mature; 'mature' rests on the words 'processed form'; also called feline NGF (processed form identical)

T1 sequence (A0A8I3P078 entry or part of it): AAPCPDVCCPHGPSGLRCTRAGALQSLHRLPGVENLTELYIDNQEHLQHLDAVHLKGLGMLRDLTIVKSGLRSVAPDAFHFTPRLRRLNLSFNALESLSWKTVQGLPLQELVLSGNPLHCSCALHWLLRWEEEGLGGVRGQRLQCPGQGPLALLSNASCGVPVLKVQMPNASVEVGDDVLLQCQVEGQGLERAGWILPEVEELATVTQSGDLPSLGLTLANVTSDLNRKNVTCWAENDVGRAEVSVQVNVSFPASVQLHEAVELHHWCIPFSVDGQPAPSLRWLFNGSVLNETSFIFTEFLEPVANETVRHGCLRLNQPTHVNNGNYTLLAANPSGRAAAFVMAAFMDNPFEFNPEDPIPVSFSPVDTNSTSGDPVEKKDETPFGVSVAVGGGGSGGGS

| Binder | kon [2] | Kd [3] | koff [3] | kon [3] | further results |
| --- | --- | --- | --- | --- | --- |
| B1 |  |  |  |  | Kd (canine TrkA-Fc): 0.013 nM and 0.0066 nM; koff (canine TrkA-Fc): 0.00017 s⁻¹ and 0.00016 s⁻¹; kon (canine TrkA-Fc): 1.3e+07 M⁻¹ s⁻¹ and 2.4e+07 M⁻¹ s⁻¹; Kd (canine p75-Fc): 3.7 nM and 2.7 nM |
| B2 |  |  |  |  | Kd [1]: 7.8 nM; koff [1]: 0.003 s⁻¹; kon [1]: 380000 M⁻¹ s⁻¹ |
| B3 | 110000 M⁻¹ s⁻¹ |  |  |  | Kd [2]: 2.1 nM; koff [2]: 0.00022 s⁻¹ |
| B4 |  | 0.154 nM | 9.01e-05 s⁻¹ | 585000 M⁻¹ s⁻¹ |  |
| B5 |  | 0.142 nM | 5.48e-05 s⁻¹ | 387000 M⁻¹ s⁻¹ |  |
| B6 |  | 0.129 nM | 4.43e-05 s⁻¹ | 343000 M⁻¹ s⁻¹ |  |
| B7 | 270000 M⁻¹ s⁻¹ |  |  |  | Kd [2]: 0.25 nM; koff [2]: 6.9e-05 s⁻¹ |
| B8 | 160000 M⁻¹ s⁻¹ |  |  |  | Kd [2]: 0.36 nM; koff [2]: 3.6e-05 s⁻¹ |
| B9 |  | 0.773 nM | 0.00038 s⁻¹ | 492000 M⁻¹ s⁻¹ |  |
| B10 |  | 0.42 nM | 0.000198 s⁻¹ | 471000 M⁻¹ s⁻¹ |  |
| B11 | 210000 M⁻¹ s⁻¹ |  |  |  |  |
